Measurements: the RNAGym collection of RNA variant scans (doi:10.1073/pnas.2313332121)

B1: TPR t1 (parent)
chain: GACCAAUCUGCCCUCAGAGCUCGAGAACAUCUUCGGAUGCAGAGGAGGCAGGCUUCGGUGGCGCGAUAGCGCCAACGUCCUCAACCUCCAAUGCAUCCCACCACAUGAUGAUGCCUGAAGAGCCUUGGUUUUUUG

Variants of: B1
Experiment: polymerase ribozyme fitness, log enrichment relative to wild type (log ratio); higher = more active; in vitro selection for triplet polymerase activity
In short: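 After PCR construction and transcription, each subunit's mutant library from a heterodimeric triplet polymerase ribozyme was annealed with a biotinylated primer, the partner subunit and triplets. Incubation was frozen, at −7 °C, and extended constructs were gel-excised, bound to streptavidin beads and amplified by RT-PCR, in one selection round done in triplicate. Fitness is the logarithm of a genotype's enrichment divided by that of the wild type, from inverse-variance-weighted replicate averages of Illumina-sequenced inputs and outputs. The base of the logarithm is 2, and genotypes needed ≥10 input reads and ≥1 read per output.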

Row | Variant | polymerase ribozyme fitness (log ratio)
1 | C22A A29G | -4.8
2 | C22A A26U A27U C76U A95G G110A | -6.96
3 | A24U A41G A43C U96A C102U A111U | -6.49
4 | A26G G48A C53G C89U A91C | -4.13
5 | C22G A26G C56G A75G | -5.33
6 | C22G A83C | -3.33
7 | C22A C73A G120A | -4.58
8 | C22A C49U | -6.04
9 | C22A U96G | -4.9
10 | A26U A84C C102U C115A U133G | -6.15
11 | U21G G36A | -2.46
12 | G25U G47U | -6.74
13 | G25A C49A G57A C89U C97G C115G | -6.47
14 | U21C C28U C101G G110C | -5.65
15 | A26U C49U A66G A84C C124G | -4.9
16 | A24G A111G | -2.06
17 | C22U G120U | -3.75
18 | G23C G69A | -7.97
19 | C22A G120U | -4.24
20 | C22G C101A | -3.82
21 | G23A U106A | -3.44
22 | C22A G44C | -4.8
23 | G23U A26C A43U G63U G93A G117C | -6.53
24 | U21G U59A A83U C123U U131C | -0.796

Row | Variant | polymerase ribozyme fitness (log ratio)
25 | G23U C64U | -4.56
26 | A26G U112G | -0.342
27 | U21C U54A C64A U78C G93A A111C | -6.03
28 | A24C C40U G42A C73A A95U C101U G120A U130C | -7.09
29 | U21C G113C | -1.14
30 | A26C G45C U87C | -6.66
31 | G25A C64G U81A C114A | -5.93
32 | C22G G47U A111C | -5.82
33 | A24G G63C G71U C123G | -5.78
34 | G25U C64G C94U C124G | -6.12
35 | G23A A26G | -4.52
36 | A24G G48A C64U U81C A108U G120C | -6
37 | C22U A27U G45C U54G C56G G63C A121U | -5.28
38 | C22U A50C C102U C124G | -5.01
39 | A24G C85A U96A | -3.35
40 | A24U C124G | -5.19
41 | A24U C124U | -5.45
42 | G23U G45A C56U C98A U112G | -6.47
43 | A26G C49U C64U U87A | -3.25
44 | U21C C22G C34A C49A A84G C123U U125G U133C | -4.3
45 | G23A G77A | -6.34
46 | C22U U106G C115U | -6.69
47 | A26U C94U C123G U132C | -1.68
48 | A26U C79G C124U | -4.91

Row | Variant | polymerase ribozyme fitness (log ratio)
49 | U21C U96G C114U | -1.48
50 | A26G U59A C62A G63A | -5.96
51 | G23A C31U G122U C124G | -7.15
52 | C22A U112A C114G | -1.84
53 | C22G G47C U59C U92G C97A A111G | -6.83
54 | C22G G42C | -3.87
55 | G25A G61U | -3.17
56 | C22G C82A C94G A111U | -4.76
57 | A26U G44U C64G C89U U112G | -6.55
58 | C22U A26U C53U G69C A119G | -6.14
59 | G23A G69U G93U | -4.63
60 | A24G A41C | -2.27
61 | C22G G35C C64U | -6.13
62 | U21C G61C C85A A95U | -4.53
63 | U21G G23U A27G A83C U112G | -7.42
64 | A24G A90U | -2.52
65 | C22G A29C G110U | -4.24
66 | A24C A50C G52U A111C | -6.93
67 | A26C C97U | -5.92
68 | A24G A119G A121U | 1.12
69 | A24G C102U | -3.7
70 | C22A C31G G61A C102A C123G | -7.56
71 | G25U C56G G63C A121U | -5.04
72 | U21C G42A U109A G117C | -7.38

Row | Variant | polymerase ribozyme fitness (log ratio)
73 | C22U A91U U112G | -6.06
74 | A24G G42U G45A C72G C88A A121G U125C | -2.21
75 | A26C C82A | -5.2
76 | C22G G36C | -3.09
77 | G23A G51A A111G | -6
78 | A24G C88G C123A U129A | -4.43
79 | A26U G48A C72U | -3.67
80 | A24G G110A U116G C124A | -6.51
81 | A26G A37U C123U U133A | -2.78
82 | U21C C28U C72U | -1.89
83 | U21G G60A G63C U78A C115U A119U U130A | -4.71
84 | G23A C53U | -5.33
85 | A24C G51U G61C C79A C102A G110U | -6.53
86 | C22U G39A C64U C99U U130C | -6.29
87 | G25C G61U | -3.53
88 | U21C C101A | -0.445
89 | C22G U112A A118U | -1.75
90 | C22A G36A C56U | -5.8
91 | C22A C34G | -6.64
92 | G25U G39U U106A C114U | -5.15
93 | C22G C86G G110U A121U | -3.31
94 | G25A C31U G63U G77U G117A C124U | -7.34
95 | C22U C56A C72A A83C U96A | -5.56
96 | A26U A50C C56A C124A | -2.3

Row | Variant | polymerase ribozyme fitness (log ratio)
97 | C22A C53A G110C U131A | -5.4
98 | C22G U32G C49A G61U U87C | -4.78
99 | A24U G60A | -4.63
100 | C22U C101A G122A | -6.14
101 | C22U C70U | -4.14
102 | G25U C34G G36C C97A U112G | -6.79
103 | U21C C56A C70U G110U | -6.01
104 | U21C C22A C88U | -4.68
105 | A26U C72U | -2.63
106 | G25A C124G | -5.14
107 | G25A C124U | -5.31
108 | G25A G45U C88G A90G C99G C115A | -7.43
109 | C22G G93U | -3.03
110 | C22A G42U G71U G113C | -5.64
111 | U21G A24G | -2.02
112 | A26C A43G G69A U78G C82G C115A C123U U130G | -6.36
113 | A26G C123G C124U G135U | -1.25
114 | A26G A66C G113C U126G | -6.73
115 | C22A G61A A83G U96A C114A | -5.1
116 | A26U C62G C124A | -3.42
117 | G25A C40U G63A G113C U129A | -6.66
118 | U21C C70U | -0.476
119 | G23U G120A | -6.57
120 | A24G C62A | -2.63

Row | Variant | polymerase ribozyme fitness (log ratio)
121 | G23A C64G C115U C123G | -6.62
122 | U21G A66G C73A C94A | -4.63
123 | C22U G60A | -3.85
124 | G23A C72U | -5.21
125 | G23A C72G | -4.87
126 | A26G G60U G77A A84C C102G U112A U116C | -5.99
127 | A26U A74G C98U | -4.46
128 | A24G U131A | -2.25
129 | A24G A46U C62G | -5.81
130 | G23U C31G C102G C124A | -6.83
131 | U21C A90C | -1.17
132 | C22A G51C C72A | -6.53
133 | A24G G63U | -3.19
134 | G23C A26G C98U A105G C114G | -7.07
135 | C22A G120U U131A | -4.18
136 | G25U G69U | -4.36
137 | C22G C56A C73U | -4.49
138 | A24G G113A | -3.26
139 | G23U A26G A37U G69U | -5.18
140 | C22U G69U | -2.26
141 | A26G C86U | -2.13
142 | A24G A29U G44U C80A | -6.46
143 | C22A G61U | -5.05
144 | C22U C70U C88G | -6.53

Row | Variant | polymerase ribozyme fitness (log ratio)
145 | A26C U106A | -3.34
146 | A26G C56U | -1.28
147 | G25A A26U A43G G61C U78A C102U G110C | -7.68
148 | G23C C49G G51C G61U G117U G128C | -6.88
149 | G25U C72U C88A U109C A119U C123U | -8.09
150 | C22U U131A | -3.95
151 | A24G C72U C88A G93U | -5.29
152 | U21C U55G U59G G71U C115G | -4.57
153 | A26G G45A | -2.64
154 | A24C A27G | -6.86
155 | G23A A26G C104A | -5.12
156 | A26U G45A U54A | -4.06
157 | A26G G93A C114A | -3.14
158 | U21G C73U | -1.84
159 | G23U G60U G65C C99G C123U | -7.81
160 | A24G G69A | -4.71
161 | A24G G69U | -0.509
162 | A26G G44C | -2.38
163 | C22U C56G | -3.79
164 | C22A G48A G57U C70A A83G A91U C115A | -7.04
165 | C22A A74G C97U | -4.56
166 | U21C G35C C73G A83C | -5.87
167 | C22A A41U A90U A121G | -5.71
